According to patent US20240336664A1, “SULFATED POLYPEPTIDES FOR SYSTEMIC DELIVERY” (priority 2021, published 2024):

Tested on: C2C12 mouse myoblasts
Assay: Luciferase reporter expression from muscle promoters
Format: cell-based
Settings: 48 hours post transfection, FIG. 6
Excerpt: The present Example includes the recognition that certain promoters utilized herein have advantageous characteristics for expression of operably linked coding sequences in muscle cells, as exemplified in the present Example in C2C12 mouse myoblasts as a representative muscle cell type. In the present Example, a luciferase reporter construct was expressed in C2C12 mouse myoblasts using each of three promoters. Cells were mock transfected or transfected with vectors expressing luciferase using Lipofectamine LTS Plus reagent in a 96-well plate. 48 hours post transfection luciferase activity was measured using ONE-Glo™ Luciferase Assay System (E6110, Promega).

B1: SEQ ID NO: 3: promoter nucleic acid sequence driving a luciferase expression construct in muscle cells (nucleic acid)
DNA: CAGGCCCTGTAACTTTTCCAATAAAATATTCTATTAGAAACAAGTTCCTTCTAGATCTTCCTAAAAGAATACTAAAGGACCAAACCGTGCAACAGCACTGGTGGTATTGTCTTAATTTAGAGAGTCCATACCAGTGATTCTCAAACATTAGTATGCTCAGAGTTTCTGGTTCAATAGGTCTGGGCCGGGCCCAGGGAATTTTCATTTCTAAGAAGTTCGCAGGTGATACTGATAACTGCTGTTCCCAGGGTCTACATTTTGAGATCCGCTGCTATGTCACAAATCCAAATCCAAAGTCTTTTTAACAATCCCTTTTAGCCCAGGATGAGCCTAACGGCAATTTCACGTCCTTATCGCCGGCCACTTTAATCTTCAACTGAGGAGGAAGGGAGAGTGAGAATTATGTATATAATTTTTTTCTTTTATTTTTTAAAAAGAAAACTCCAAGCCCACACTCTTAATTATCTGGGATGAGGTCATTTGCACCTGGGTCATTTATTTAGACAACAAGTAGTCTTGCTAGAGGCTTTAAGGAGGTGTTAGCAGAGCGGTGTGTGGCTTCCAGGTTCCTGGGTCTACCTTAAATCCCCATCCTCTTTCTTTCTTTCTTTCTTTCTTTCTTTCTCTTTTCTTTTTCCTTTCCGTTTTGAAAGCCCCAACTGCCCAGTCTCTGGGTGTCCGGGTTCCCAGGTCCCTAGGTGGGGGCGGAGCCCGACACGGCCCCGCCCCGTCTGCCCGCAGCGCCCCCTCCCCGGCCCGCCCGCGCCGGCTCCTCCGCAGTGCTTTCAGCTGTGAGCTTGGGCGGCGGCGGCGGCGGCGCTCCACTTTCGGGGAGCCCGGCGGCTCTGGGAAGCTCACTCCTCCACTCGTACCCACACTCGACCGCGGAGCCCTTGCAGCCATGAGGGAACAGCTCAAAGGGTAAGTGGA
B1 was tested, and the “luciferase expression vs promoters SEQ ID NO: 4 and SEQ ID NO: 5 and mock” value was “substantially greater expression”.
